Laboratory results published in publication PMC6662825, “The MTR4 helicase recruits nuclear adaptors of the human RNA exosome using distinct arch-interacting motifs” (Nature Communications, 2019).

How the values were obtained:
Assay in all cases: pull-down; GST-tagged MTR4 constructs as bait, Trx-NVL constructs as prey, glutathione sepharose; 10 μM GST-MTR4∆N with 20 μM Trx-NVL constructs; 50 mM Hepes pH 7.5, 150 mM NaCl, 5% glycerol, 0.05% NP40, 1 mM DTT, 30 min at 4 °C; SDS-PAGE, Coomassie
Settings in all cases: both partners purified
GST-MTR4-∆N = target: T1, GST-MTR4-∆N (human, UniProt P42285 75-1042)
T1 construct: Tag is cleavable with 3C protease; kept for the GST pull-downs; also called GST-tagged MTR4∆N; source: E. coli BL21 star (DE3), purified (Ni-NTA, heparin, SEC); not shown: 6xHis-GST, N-terminal, kept
T1 sequence (looked up): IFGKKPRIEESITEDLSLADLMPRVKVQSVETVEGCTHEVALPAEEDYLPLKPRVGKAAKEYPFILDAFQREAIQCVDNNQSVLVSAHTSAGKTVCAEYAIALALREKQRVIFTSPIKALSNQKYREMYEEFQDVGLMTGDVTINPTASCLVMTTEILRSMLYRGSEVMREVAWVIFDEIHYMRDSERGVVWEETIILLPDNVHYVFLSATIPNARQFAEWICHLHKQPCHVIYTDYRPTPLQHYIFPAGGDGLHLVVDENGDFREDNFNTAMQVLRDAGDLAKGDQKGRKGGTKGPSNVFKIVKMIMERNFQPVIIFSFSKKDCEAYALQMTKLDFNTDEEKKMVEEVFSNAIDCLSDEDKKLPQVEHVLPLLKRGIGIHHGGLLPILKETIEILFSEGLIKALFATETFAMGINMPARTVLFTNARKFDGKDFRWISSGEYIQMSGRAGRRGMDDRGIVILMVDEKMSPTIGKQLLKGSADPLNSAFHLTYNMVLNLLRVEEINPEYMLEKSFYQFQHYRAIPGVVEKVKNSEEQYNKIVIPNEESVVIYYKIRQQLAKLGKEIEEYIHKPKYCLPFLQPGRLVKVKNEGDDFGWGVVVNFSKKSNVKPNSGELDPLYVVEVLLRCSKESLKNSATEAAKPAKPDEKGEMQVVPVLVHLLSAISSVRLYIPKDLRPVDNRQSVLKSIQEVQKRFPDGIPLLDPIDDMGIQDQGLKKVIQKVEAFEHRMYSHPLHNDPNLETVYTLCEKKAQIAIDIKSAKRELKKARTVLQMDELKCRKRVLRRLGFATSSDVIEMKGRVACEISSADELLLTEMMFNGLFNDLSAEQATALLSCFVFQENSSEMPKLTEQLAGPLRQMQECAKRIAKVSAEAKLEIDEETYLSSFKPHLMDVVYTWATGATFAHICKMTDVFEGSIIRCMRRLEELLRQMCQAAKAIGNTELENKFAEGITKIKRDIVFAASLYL

GST-MTR4-KOW = target: T2, GST-MTR4-KOW (human, UniProt P42285 645-787)
T2 construct: human MTR4 KOW domain, residues 645–787; also called GST-tagged MTR4 KOW; source: E. coli BL21 star (DE3), purified (Ni-NTA, heparin, SEC); not shown: 6xHis-GST, N-terminal, kept
T2 sequence (looked up): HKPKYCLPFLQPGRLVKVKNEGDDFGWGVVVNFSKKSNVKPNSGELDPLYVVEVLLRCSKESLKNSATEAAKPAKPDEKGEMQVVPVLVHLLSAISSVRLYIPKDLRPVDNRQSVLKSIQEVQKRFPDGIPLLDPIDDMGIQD

GST-MTR4∆N R743E = target: T3, GST-MTR4∆N R743E (human, UniProt P42285 75-1042, R743E)
T3 construct: also called R743E mutant; source: E. coli BL21 star (DE3), purified (Ni-NTA, heparin, SEC); not shown: 6xHis-GST, N-terminal, kept
T3 sequence (looked up): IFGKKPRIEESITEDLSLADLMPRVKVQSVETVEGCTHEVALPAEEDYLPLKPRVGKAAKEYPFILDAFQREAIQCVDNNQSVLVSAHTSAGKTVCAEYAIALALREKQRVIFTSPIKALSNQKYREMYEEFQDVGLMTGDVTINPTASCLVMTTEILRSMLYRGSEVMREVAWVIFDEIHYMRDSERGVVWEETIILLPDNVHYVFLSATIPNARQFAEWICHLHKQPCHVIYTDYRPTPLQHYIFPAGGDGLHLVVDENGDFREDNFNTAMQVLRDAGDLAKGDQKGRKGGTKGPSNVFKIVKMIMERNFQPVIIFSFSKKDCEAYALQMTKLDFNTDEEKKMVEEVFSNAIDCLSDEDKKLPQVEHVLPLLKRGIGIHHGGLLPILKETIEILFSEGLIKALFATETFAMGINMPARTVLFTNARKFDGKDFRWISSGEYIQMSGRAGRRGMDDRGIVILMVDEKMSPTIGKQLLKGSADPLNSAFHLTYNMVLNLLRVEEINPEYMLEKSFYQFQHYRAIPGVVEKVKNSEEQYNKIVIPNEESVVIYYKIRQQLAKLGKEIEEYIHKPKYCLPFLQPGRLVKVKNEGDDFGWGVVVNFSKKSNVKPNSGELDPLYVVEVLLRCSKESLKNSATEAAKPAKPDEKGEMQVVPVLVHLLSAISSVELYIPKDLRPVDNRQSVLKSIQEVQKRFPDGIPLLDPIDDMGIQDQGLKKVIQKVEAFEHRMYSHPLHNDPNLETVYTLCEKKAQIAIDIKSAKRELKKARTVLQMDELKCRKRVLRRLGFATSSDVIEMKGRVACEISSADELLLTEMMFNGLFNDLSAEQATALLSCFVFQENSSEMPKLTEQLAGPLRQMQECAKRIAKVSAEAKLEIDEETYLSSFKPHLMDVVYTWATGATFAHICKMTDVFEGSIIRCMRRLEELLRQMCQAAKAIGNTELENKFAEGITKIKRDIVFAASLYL

binding result (GST-MTR4-∆N): binds
binding result (GST-MTR4-KOW): binds
binding result (GST-MTR4∆N R743E): binds
B1: Trx-NVL^167–216 (domain or fragment, human, UniProt O15381 167-216, looked up)
chain: KDSEGGWFIDKTPSVKKDSFFLDLSCEKSNPKKPITEIQDSKDSSLLESD
notes: source: E. coli BL21 star (DE3), purified (Ni-NTA, SEC); not shown: 6xHis-Trx, N-terminal, kept
